Reference: article PMC4410396 (Acta Naturae, 2015)

T1: MorFDH (Moraxella sp., UniProt O08375, A199G)
T1 construct: gene fdh; recombinant, plasmid pMorFDH2, E. coli BL21(DE3)/pLysS; no tag mentioned; Phenyl Sepharose and Sephadex G-25
T1 sequence (O08375 2-402 A199G): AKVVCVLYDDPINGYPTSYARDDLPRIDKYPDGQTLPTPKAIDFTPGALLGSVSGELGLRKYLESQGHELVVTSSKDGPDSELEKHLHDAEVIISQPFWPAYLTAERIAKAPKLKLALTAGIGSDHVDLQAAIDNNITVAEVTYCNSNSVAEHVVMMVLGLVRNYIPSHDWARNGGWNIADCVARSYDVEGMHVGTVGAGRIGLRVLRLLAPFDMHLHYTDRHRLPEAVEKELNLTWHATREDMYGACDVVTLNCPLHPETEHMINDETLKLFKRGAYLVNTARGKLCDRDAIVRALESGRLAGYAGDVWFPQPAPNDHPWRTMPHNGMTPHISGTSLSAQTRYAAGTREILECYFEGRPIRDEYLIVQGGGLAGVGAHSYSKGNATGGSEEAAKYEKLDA


Tests used:
MorFDH = molecular target: T1, MorFDH; assay: spectrophotometric NAD(P)H formation at […] nm; type: biochemical; details: saturating formate (>15 KM); 0.1 M sodium phosphate pH 7.0, 30°C; read-out: KMKNAD^+
[1] = test system: T2, NC(=O)c1ccc[n+]([C@@H]2O[C@H](COP(=O)(O)OP(=O)(O)OC[C@H]3O[C@@H](n4cnc5c(N)ncnc54)[C@H](O)[C@@H]3O)[C@@H](O)[C@H]2O)c1; assay: purified protein; type: biochemical, Pseudomonas sp. 101; details: saturating formate (>15 KM), 0.1 M sodium phosphate pH 7.0, 30°C
T2 construct: recombinant, plasmid pPseFDH8, E. coli BL21(DE3)/pLysS; no tag mentioned; Phenyl Sepharose and Sephadex G-25

[2] = test system: T3, NC(=O)c1ccc[n+]([C@@H]2O[C@H](COP(=O)(O)OP(=O)(O)OC[C@H]3O[C@@H](n4cnc5c(N)ncnc54)[C@H](OP(=O)(O)O)[C@@H]3O)[C@@H](O)[C@H]2O)c1; assay: purified protein; type: biochemical, Pseudomonas sp. 101; details: saturating formate (>15 KM), 0.1 M sodium phosphate pH 7.0, 30°C
T3 construct: recombinant, plasmid pPseFDH8, E. coli BL21(DE3)/pLysS; no tag mentioned; Phenyl Sepharose and Sephadex G-25

purified protein = substrate: NC(=O)c1ccc[n+]([C@@H]2O[C@H](COP(=O)(O)OP(=O)(O)OC[C@H]3O[C@@H](n4cnc5c(N)ncnc54)[C@H](OP(=O)(O)O)[C@@H]3O)[C@@H](O)[C@H]2O)c1; assay: purified protein; type: biochemical, Pseudomonas sp. 101; details: saturating formate (>15 KM), 0.1 M sodium phosphate pH 7.0, 30°C, printed with an asterisk

| Molecule | Km [1] | kcat [1] | also measured |
| --- | --- | --- | --- |
| NC(=O)c1ccc[n+]([C@@H]2O[C@H](COP(=O)(O)OP(=O)(O)OC[C@H]3O[C@@H](n4cnc5c(N)ncnc54)[C@H](O)[C@@H]3O)[C@@H](O)[C@H]2O)c1 [NAD^+] | – | – | Km (MorFDH): 45 ± 3 µM |
| PseFDH (Pseudomonas sp. 101; A199G) | 35 ± 2 µM | – | – |
| PseFDH (Pseudomonas sp. 101; A199G/D222S) | 540 ± 42 µM | 5.0 ± 0.2 s⁻¹ | Km [2]: 280 ± 25 µM; kcat [2]: 1.8 ± 0.2 s⁻¹ |
| PseFDH (Pseudomonas sp. 101; D222S) | 710 ± 45 µM | 5.0 ± 0.3 s⁻¹ | – |
| PseFDH (Pseudomonas sp. 101) (protein, recombinant, plasmid pPseFDH8, E. coli BL21(DE3)/pLysS; no tag mentioned; Phenyl Sepharose and Sephadex G-25) AKVLCVLYDDPVDGYPKTYARDDLPKIDHYPGGQTLPTPKAIDFTPGQLLGSVSGELGLRKYLESNGHTLVVTSDKDGPDSVFERELVDADVVISQPFWPAYLTPERIAKAKNLKLALTAGIGSDHVDLQSAIDRNVTVAEVTYCNSISVAEHVVMMILSLVRNYLPSHEWARKGGWNIADCVSHAYDLEAMHVGTVAAGRIGLAVLRRLAPFDVHLHYTDRHRLPESVEKELNLTWHATREDMYPVCDVVTLNCPLHPETEHMINDETLKLFKRGAYIVNTARGKLCDRDAVARALESGRLAGYAGDVWFPQPAPKDHPWRTMPYNGMTPHISGTTLTAQARYAAGTREILECFFEGRPIRDEYLIVQGGALAGTGAHSYSKGNATGGSEEAAKFKKAV | – | – | kcat (purified protein): 1.3 ± 0.1 s⁻¹ |
